Assay [1] deals with β-Glucuronidase (GusA) (E. coli MG1655), P05804. Put plainly: SEC; after 65°C and pH 5 for 20 min (high temperature and acidic pH); data not shown. Particulars: remark: other sources report otherwise. In general terms: Size exclusion chromatography separates by hydrodynamic size, large species first.
For assay [2] the target is unchanged. The experiment in a line: SEC; gel filtration of the freshly purified enzymes against reference proteins (thyroglobulin, aldolase, albumin, ovalbumin, chymotrypsinogen A); results name a Superose 12 10/300 column, methods name a ZORBAX GF-250 HPLC column, 130 mM NaCl/20 mM Na2HPO4 pH 7.0, 23°C. The settings on record: remark: other sources report otherwise.

B1: β-Glucuronidase (GusA), P05804 1-603 (enzyme)
chain: MLRPVETPTREIKKLDGLWAFSLDRENCGIDQRWWESALQESRAIAVPGSFNDQFADADIRNYAGNVWYQREVFIPKGWAGQRIVLRFDAVTHYGKVWVNNQEVMEHQGGYTPFEADVTPYVIAGKSVRITVCVNNELNWQTIPPGMVITDENGKKKQSYFHDFFNYAGIHRSVMLYTTPNTWVDDITVVTHVAQDCNHASVDWQVVANGDVSVELRDADQQVVATGQGTSGTLQVVNPHLWQPGEGYLYELCVTAKSQTECDIYPLRVGIRSVAVKGEQFLINHKPFYFTGFGRHEDADLRGKGFDNVLMVHDHALMDWIGANSYRTSHYPYAEEMLDWADEHGIVVIDETAAVGFNLSLGIGFEAGNKPKELYSEEAVNGETQQAHLQAIKELIARDKNHPSVVMWSIANEPDTRPQGAREYFAPLAEATRKLDPTRPITCVNVMFCDAHTDTISDLFDVLCLNRYYGWYVQSGDLETAEKVLEKELLAWQEKLHQPIIITEYGVDTLAGLHSMYTDMWSEEYQCAWLDMYHRVFDRVSAVVGEQVWNFADFATSQGILRVGGNKKGIFTRDRKPKSAAFLLQKRWTGMNFGEKPQQGGKQ
Broadly, the stoichiometry N is the number of molecules, sites or subunits per partner or assembly. As to B1, the stoichiometry N in assay [1] and in assay [2] was 4 in each case.
